Patent publication US20200199207A1 (MABYLON, published 2020)
Residue numbers refer to the chain shown, from its start.

T1: Peptide 13 (peanut)
T1 construct: also called linear Ara h 2 peptide 13
T1 peptide: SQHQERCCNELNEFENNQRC

T2: Peptide 1 (peanut)
T2 construct: 20-mer of Ara h 2, overlap of 12 with its neighbours; also called linear Ara h 2 peptide 1
T2 peptide: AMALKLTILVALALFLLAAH

T3: Peptide 4 (peanut)
T3 construct: also called linear Ara h 2 peptide 4
T3 peptide: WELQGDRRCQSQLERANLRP

T4: Peptide 5 (peanut)
T4 construct: also called linear Ara h 2 peptide 5
T4 peptide: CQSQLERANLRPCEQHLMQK

T5: Peptide 6 (peanut)
T5 construct: also called linear Ara h 2 peptide 6
T5 peptide: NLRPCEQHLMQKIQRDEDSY

T6: Peptide 16 (peanut)
T6 construct: also called linear Ara h 2 peptide 16
T6 peptide: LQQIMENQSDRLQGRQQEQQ

T7: Peptide 3 (peanut)
T7 construct: also called linear Ara h 2 peptide 3
T7 peptide: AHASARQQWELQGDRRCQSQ

T8: Peptide 18 (peanut)
T8 construct: also called linear Ara h 2 peptide 18
T8 peptide: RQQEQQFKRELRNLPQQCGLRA

T9: Peptide 20 (peanut)
T9 construct: also called linear Ara h 2 peptide 20
T9 peptide: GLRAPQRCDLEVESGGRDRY

T10: Peptide 10 (peanut)
T10 construct: also called linear Ara h 2 peptide 10
T10 peptide: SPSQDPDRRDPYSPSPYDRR

T11: Peptide 9 (peanut)
T11 construct: also called linear Ara h 2 peptide 9
T11 peptide: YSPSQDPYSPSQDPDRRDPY

T12: Peptide 7 (peanut)
T12 construct: also called linear Ara h 2 peptide 7
T12 peptide: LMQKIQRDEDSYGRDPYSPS

T13: Peptide 8 (peanut)
T13 construct: also called linear Ara h 2 peptide 8
T13 peptide: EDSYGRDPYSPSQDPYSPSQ

T14: Peptide 15 (peanut)
T14 construct: also called linear Ara h 2 peptide 15
T14 peptide: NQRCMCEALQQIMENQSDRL

T15: Peptide 19 (peanut)
T15 construct: also called linear Ara h 2 peptide 19
T15 peptide: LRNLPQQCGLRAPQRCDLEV

T16: Peptide 12 (peanut)
T16 construct: also called linear Ara h 2 peptide 12
T16 peptide: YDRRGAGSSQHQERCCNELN

T17: Peptide 14 (peanut)
T17 construct: also called linear Ara h 2 peptide 14
T17 peptide: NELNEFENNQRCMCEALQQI

T18: Peptide 17 (peanut)
T18 construct: also called linear Ara h 2 peptide 17
T18 peptide: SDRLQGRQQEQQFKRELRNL

T19: Peptide 2 (peanut)
T19 construct: also called linear Ara h 2 peptide 2
T19 peptide: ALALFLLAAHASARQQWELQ

T20: Peptide 11 (peanut)
T20 construct: also called linear Ara h 2 peptide 11
T20 peptide: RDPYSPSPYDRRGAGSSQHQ

B1: h12G10 (antibody, human IgG1, V domains shown)
VH: EVQLLESGGRLLRPGGSLSLSCVASGFYFGDFGMSWVRQVPGKGLEWVSGIDWSGRSTGYVDSMKGRLTISRDNDKSSLYLQMNDLRGEDTAVYYCARVGRLCSGDSCDSMGAFDLWGQGTMVTVSS
VL: DIQLTQSPSTLSASIGDSVTITCRASQNIDNWLAWYQQKPGKAPRLLIYKASSLGSGVSSKFRGSGFGTEFTLTITSLQPDDFATYYCQKSNGYSRTFGQGTKVDIK
notes: Recombinant human IgG; also called hMAb 12G10
B2: h37D5 (antibody, V domains shown)
VH: EEQLVESGGRLLRPGESLSLSCAAVGFNFGDFGMAWVRQPPGKGLEWVAGINWSGHSTGFVDSMKGRLTISRDSAKSSLFLQMNSLRGEDTAVYYCARVGRLCSGDICDSMGAFDLWGQGTMVTVSS
VL: B1 VL with L4M, S18R, N28T, K39R, R45K, K50Q, G55Q, K61R, F67S, D105E
notes: Recombinant human IgG; also called hMAb 37D5
B3: h4B2 (antibody, V domains shown)
VH: QVQLQEAGPRLVKPSQTLSVTCTVSGASITIGGYYWSWIRQHPGKGLEWMGYIYSNGRTYYNPSLKSRIAMSIDTSKNQFSLKLTSVTAADTAIYFCAREAWETPLWGQGTLITVSS
VL: DIQMTQSPSSLSASVGDRVTITCQANQDIVNSLNWFQHKPGTAPKVLIYDASKLETGVPSRFSGSGSGTHFTFTISGLQPEDFATYFCQQYENLPHTFGQGTKLEIR
notes: Recombinant human IgG; also called hMAb 4B2
B4: h32B10 (antibody, V domains shown)
VH: QVQLVQSGAEVKKPGASVKVSCRASGYIFRNFDINWVRQATGQGLEWMGWMSPKSGDTGYAQKFQGRVTMTRDTSINTAYMELSSLTSEDSAVYYCARGVDGTNWGQGTRVTVSS
VL: DIVMTQSPDSLGVSLGERATISCKSSQSILDNSNNKNFIAWFQQKPGQPPKLLIYWASARESGVPDRFSGSGSGTEFTLTINSLQAEDVAVYYCYQYYSTPHTFGQGTKLDLR
notes: Recombinant human IgG; also called hMAb 32B10

Molecular target: T1, Peptide 13
Assay: competition ELISA, peptide in solution vs coated Ara h 2
Description: (§1) A competition ELISA was used to evaluate binding of exemplary anti-peanut antibodies of the present invention to linear Ara h 2 epitopes. Serial dilutions of linear Ara h 2 epitopes (100 μM down to 0.19 nM; peptides with a length of 20 amino acids and an overlap of 12 amino acids between the peptides) were pre-incubated with exemplary anti-peanut antibodies ([…]) for 1 hour at room temperature. The pre-incubated antibody-epitope mixtures were subsequently incubated on plates coated with full length Ara h 2 (coating overnight at 4° C. with 0.05 μg/ml Ara h 2 in PBS, followed by wash out and blocking with 2% BSA in PBS). The plates were subsequently washed and binding of MAbs to Ara h 2 was detected HRP-conjugated goat anti human Fc-gamma-specific antibody (Jackson ImmunoResearch, West Grove, Pa., USA) followed by measurement of the HRP activity using a tetramethylbenzidine substrate solution (TMB, Sigma-Aldrich Chemie GmbH, Buchs, Switzerland). As may be seen from Table 5, exemplary anti-peanut allergen antibody 32B10 binds to different linear Ara h 2 epitopes than 12G10 and 37D5.

binding result	Binder
no binding (tested: 100 µM)	B1
no binding (tested: 100 µM)	B2
no binding (tested: 100 µM)	B3
no binding (tested: 100 µM)	B4

Molecular target: T2, Peptide 1
Assay: as above
Description: as §1

binding result	Binder
no binding (tested: 100 µM)	B1
no binding (tested: 100 µM)	B2
no binding (tested: 100 µM)	B3
no binding (tested: 100 µM)	B4

Molecular target: T3, Peptide 4
Assay: as above
Description: as §1

binding result	Binder
no binding (tested: 100 µM)	B1
no binding (tested: 100 µM)	B2
no binding (tested: 100 µM)	B3
binds	B4

Molecular target: T4, Peptide 5
Assay: as above
Description: as §1

binding result	Binder
no binding (tested: 100 µM)	B1
no binding (tested: 100 µM)	B2
no binding (tested: 100 µM)	B3
no binding (tested: 100 µM)	B4

Molecular target: T5, Peptide 6
Assay: as above
Description: as §1

binding result	Binder
no binding (tested: 100 µM)	B1
no binding (tested: 100 µM)	B2
no binding (tested: 100 µM)	B3
no binding (tested: 100 µM)	B4

Molecular target: T6, Peptide 16
Assay: as above
Description: as §1

binding result	Binder
no binding (tested: 100 µM)	B1
no binding (tested: 100 µM)	B2
no binding (tested: 100 µM)	B3
no binding (tested: 100 µM)	B4

Molecular target: T7, Peptide 3
Assay: as above
Description: as §1

binding result	Binder
no binding (tested: 100 µM)	B1
no binding (tested: 100 µM)	B2
no binding (tested: 100 µM)	B3
no binding (tested: 100 µM)	B4

Molecular target: T8, Peptide 18
Assay: as above
Description: as §1

binding result	Binder
no binding (tested: 100 µM)	B1
no binding (tested: 100 µM)	B2
no binding (tested: 100 µM)	B3
no binding (tested: 100 µM)	B4

Molecular target: T9, Peptide 20
Assay: as above
Description: as §1

binding result	Binder
no binding (tested: 100 µM)	B1
no binding (tested: 100 µM)	B2
no binding (tested: 100 µM)	B3
no binding (tested: 100 µM)	B4

Molecular target: T10, Peptide 10
Assay: as above
Description: as §1

binding result	Binder
binds	B1
binds	B2
no binding (tested: 100 µM)	B3
no binding (tested: 100 µM)	B4

Molecular target: T11, Peptide 9
Assay: as above
Description: as §1

binding result	Binder
binds	B1
binds	B2
no binding (tested: 100 µM)	B3
no binding (tested: 100 µM)	B4

Molecular target: T12, Peptide 7
Assay: as above
Description: as §1

binding result	Binder
no binding (tested: 100 µM)	B1
no binding (tested: 100 µM)	B2
no binding (tested: 100 µM)	B3
no binding (tested: 100 µM)	B4

Molecular target: T13, Peptide 8
Assay: as above
Description: as §1

binding result	Binder
binds	B1
binds	B2
no binding (tested: 100 µM)	B3
no binding (tested: 100 µM)	B4

Molecular target: T14, Peptide 15
Assay: as above
Description: as §1

binding result	Binder
no binding (tested: 100 µM)	B1
no binding (tested: 100 µM)	B2
no binding (tested: 100 µM)	B3
no binding (tested: 100 µM)	B4

Molecular target: T15, Peptide 19
Assay: as above
Description: as §1

binding result	Binder
no binding (tested: 100 µM)	B1
no binding (tested: 100 µM)	B2
no binding (tested: 100 µM)	B3
no binding (tested: 100 µM)	B4

Molecular target: T16, Peptide 12
Assay: as above
Description: as §1

binding result	Binder
no binding (tested: 100 µM)	B1
no binding (tested: 100 µM)	B2
no binding (tested: 100 µM)	B3
no binding (tested: 100 µM)	B4

Molecular target: T17, Peptide 14
Assay: as above
Description: as §1

binding result	Binder
no binding (tested: 100 µM)	B1
no binding (tested: 100 µM)	B2
no binding (tested: 100 µM)	B3
no binding (tested: 100 µM)	B4

Molecular target: T18, Peptide 17
Assay: as above
Description: as §1

binding result	Binder
no binding (tested: 100 µM)	B1
no binding (tested: 100 µM)	B2
no binding (tested: 100 µM)	B3
no binding (tested: 100 µM)	B4

Molecular target: T19, Peptide 2
Assay: as above
Description: as §1

binding result	Binder
no binding (tested: 100 µM)	B1
no binding (tested: 100 µM)	B2
no binding (tested: 100 µM)	B3
no binding (tested: 100 µM)	B4

Molecular target: T20, Peptide 11
Assay: as above
Description: as §1

binding result	Binder
binds	B1
binds	B2
no binding (tested: 100 µM)	B3
no binding (tested: 100 µM)	B4
